# Source: US20060234945A1, “Ophthalmic therapeutic composition” (Nihon Tenganyaku Kenkyusho Co., LTD., priority 2002, published 2006)
# System: rabbit corneal wound model
# Assay: Corneal wound healing promotion action 1 (in vivo), approx. 6 mm corneal epithelial abrasion
# Parameters: species or system Japanese white rabbit
# Settings: 5 μM eye drop
# Procedure: (2) Corneal Wound Healing Promotion Action 1 (In Vivo)
# Using a male Japanese white rabbit, a wound of approximately 6 mm in diameter was produced in the cornea by inducing corneal epithelial abrasion in accordance with the method of Cintron et al. (Ophthalmic Res., 11, pp. 90-96 (1979)). The wound area was measured using the fluorescein-stained area as an index. The effects of the test compound on corneal wound healing were examined.
# The eye drops containing the respective concentrations of the test compound were instilled (30 μl at a time) at 0, 3, 6, 9, 12, 18, 24, 27, 30, 33, 36, 42, and 48 hours after inducing corneal epithelial abrasion. In measuring the wound area, fluorescein staining was carried out and a photograph of the cornea was measured. The fluorescein-stained area of the photographed cornea was computed using an image analysis processing system.
# In Tables 1 and 2, the respective values indicate the mean value±standard deviation (n=6). Statistical analysis was carried out using Dunnett's multiple comparison with respect to PBS with the area of the corneal wound portion immediately after (0 hours after) corneal epithelial abrasion being set to 100% (*p<0.05, ** p<0.01; vs. control).
molecule,measurement,setting,value
"EGF: Epidermal Growth Factor, polypeptide with a molecular weight of 6000, mitosis-promoting growth factor for corneal epithelium (protein, UniProt P01133 23-1207, looked up, Pro-epidermal growth factor, Epidermal Growth Factor, polypeptide with a molecular weight of 6000, mitosis-promoting growth factor for corneal epithelium) Pro-epidermal growth factor: PQHWSCPEGTLAGNGNSTCVGPAPFLIFSHGNSIFRIDTEGTNYEQLVVDAGVSVIMDFHYNEKRIYWVDLERQLLQRVFLNGSRQERVCNIEKNVSGMAINWINEEVIWSNQQEGIITVTDMKGNNSHILLSALKYPANVAVDPVERFIFWSSEVAGSLYRADLDGVGVKALLETSEKITAVSLDVLDKRLFWIQYNREGSNSLICSCDYDGGSVHISKHPTQHNLFAMSLFGDRIFYSTWKMKTIWIANKHTGKDMVRINLHSSFVPLGELKVVHPLAQPKAEDDTWEPEQKLCKLRKGNCSSTVCGQDLQSHLCMCAEGYALSRDRKYCEDVNECAFWNHGCTLGCKNTPGSYYCTCPVGFVLLPDGKRCHQLVSCPRNVSECSHDCVLTSEGPLCFCPEGSVLERDGKTCSGCSSPDNGGCSQLCVPLSPVSWECDCFPGYDLQLDEKSCAASGPQPFLLFANSQDIRHMHFDGTDYGTLLSQQMGMVYALDHDPVENKIYFAHTALKWIERANMDGSQRERLIEEGVDVPEGLAVDWIGRRFYWTDRGKSLIGRSDLNGKRSKIITKENISQPRGIAVHPMAKRLFWTDTGINPRIESSSLQGLGRLVIASSDLIWPSGITIDFLTDKLYWCDAKQSVIEMANLDGSKRRRLTQNDVGHPFAVAVFEDYVWFSDWAMPSVMRVNKRTGKDRVRLQGSMLKPSSLVVVHPLAKPGADPCLYQNGGCEHICKKRLGTAWCSCREGFMKASDGKTCLALDGHQLLAGGEVDLKNQVTPLDILSKTRVSEDNITESQHMLVAEIMVSDQDDCAPVGCSMYARCISEGEDATCQCLKGFAGDGKLCSDIDECEMGVPVCPPASSKCINTEGGYVCRCSEGYQGDGIHCLDIDECQLGEHSCGENASCTNTEGGYTCMCAGRLSEPGLICPDSTPPPHLREDDHHYSVRNSDSECPLSHDGYCLHDGVCMYIEALDKYACNCVVGYIGERCQYRDLKWWELRHAGHGQQQKVIVVAVCVVVLVMLLLLSLWGAHYYRTQKLLSKNPKNPYEESSRDVRSRRPADTEDGMSSCPQPWFVVIKEHQDLKNGGQPVAGEDGQAADGSMQPTSWRQEPQLCGMGTEQGCWIPVSSDKGSCPQVMERSFHMPSYGTQTLEGGVEKPHSLLSANPLWQQRALDPPHQMELTQ",Healing ratio (%),0 hr (baseline),0%
same,Healing ratio (%),6 hr,14.49 ± 3.42%
same,Healing ratio (%),12 hr,31.63 ± 1.29%
same,Healing ratio (%),24 hr,70.78 ± 6.91%
same,Healing ratio (%),36 hr,96.41 ± 3.97%
same,Healing ratio (%),48 hr,99.58 ± 1.03%
